In patent publication US20240228572A1, “LONG ACTING GLUCAGON RECEPTOR SELECTIVE PEPTIDES AND METHODS OF USE” (i2o Therapeutics, Inc., priority 2020, published 2024):

Target: hGIPR (human) (UniProt P48546)
Test: cell-based or functional assay

Sequence of hGIPR (human) (P48546 22-466): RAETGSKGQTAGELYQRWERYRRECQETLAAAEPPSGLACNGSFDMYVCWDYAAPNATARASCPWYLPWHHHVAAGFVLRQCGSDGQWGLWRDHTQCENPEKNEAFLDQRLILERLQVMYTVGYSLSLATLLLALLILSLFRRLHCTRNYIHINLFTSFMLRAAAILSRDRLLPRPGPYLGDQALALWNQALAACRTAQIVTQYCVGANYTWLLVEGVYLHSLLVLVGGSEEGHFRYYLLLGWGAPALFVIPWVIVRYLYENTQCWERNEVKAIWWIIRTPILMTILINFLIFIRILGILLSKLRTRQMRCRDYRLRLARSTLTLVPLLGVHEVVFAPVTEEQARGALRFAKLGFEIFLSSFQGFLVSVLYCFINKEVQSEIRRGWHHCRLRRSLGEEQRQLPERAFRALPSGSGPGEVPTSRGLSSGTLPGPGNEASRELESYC

How did the pEC50, cAMP accumulation (pEC50 (-log M)) turn out when “hGIP (from UniProt P09681 52-93) (peptide)” was run?
Its pEC50, cAMP accumulation (pEC50 (-log M)) is 11.8.
